Results published in paper PMC2873509, “The RNA binding protein HuR does not interact directly with HIV-1 reverse transcriptase and does not affect reverse transcription in vitro”.

Assays:
NusA-HuR [1] = molecular target: T1, NusA-HuR (UniProt Q15717 1-326); test: EMSA; 0-3 uM HuR, 100 nM RNA; EMSA: 50 mM Tris pH 7.5, 50 mM KCl, 37 C, 1 h, 100 nM 32P-RNA; 7% native PAGE in 40 mM Tris-acetate pH 8.0, 1 mM EDTA, room temperature; conditions: protein: recombinant; tags: N-terminal NusA fusion, TEV site ENLYFQS; Ni-NTA purified; label: 32P
T1 sequence (Q15717 whole entry, the tested form may be a part): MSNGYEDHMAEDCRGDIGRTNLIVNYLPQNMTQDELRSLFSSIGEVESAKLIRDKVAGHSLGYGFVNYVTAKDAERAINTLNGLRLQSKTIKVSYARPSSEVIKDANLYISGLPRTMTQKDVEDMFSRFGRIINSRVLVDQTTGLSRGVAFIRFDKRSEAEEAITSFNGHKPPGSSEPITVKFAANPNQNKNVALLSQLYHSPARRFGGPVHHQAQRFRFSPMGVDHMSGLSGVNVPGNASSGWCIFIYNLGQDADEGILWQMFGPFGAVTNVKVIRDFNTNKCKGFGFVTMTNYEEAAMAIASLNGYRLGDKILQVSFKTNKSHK

NusA-HuR [2] = molecular target: T1, NusA-HuR; test: EMSA; EMSA: 50 mM Tris pH 7.5, 50 mM KCl, 37 C, 1 h, 100 nM 32P-RNA; 7% native PAGE in 40 mM Tris-acetate pH 8.0, 1 mM EDTA, room temperature; conditions: protein: recombinant; tags: N-terminal NusA fusion, TEV site ENLYFQS; Ni-NTA purified; label: 32P; RNA template with annealed primer

B1: ARE-containing synthetic ssRNA (Fig. 2C) (ssRNA)
RNA: UCAGAUAUUUAUAUUUUUAUUUUAUUUUUUUCUACCUUGAGGUCUUUUGA
NusA-HuR [1]
  binding result: binds

B2: ARE-containing template/primer (Fig. 4B) (mixed)
RNA: B1 RNA
DNA: CACTAGTCAAAAGACCTC
NusA-HuR [2]
  binding result: binds
